Measured values reported in paper PMC10397247.
Where two headings read alike, the source gives them in different places.

Columns and labels:
[1] = target: T1, 4H454-bH; experiment: two-hybrid library CCNG1;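 note: natural log of median RNA to DNA barcode read ratio; higher means stronger binding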
T1 chain: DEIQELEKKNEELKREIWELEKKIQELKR

[2] = target: T2, 4H568-bH; experiment: two-hybrid library CCNG1;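 note: natural log of median RNA to DNA barcode read ratio; higher means stronger binding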
T2 chain: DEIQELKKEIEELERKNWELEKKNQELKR

[3] = target: T3, 4H607-bH; experiment: two-hybrid library CCNG1;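 note: natural log of median RNA to DNA barcode read ratio; higher means stronger binding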
T3 chain: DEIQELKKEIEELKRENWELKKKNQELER

[4] = target: T4, 4H687-bH; experiment: two-hybrid library CCNG1;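 note: natural log of median RNA to DNA barcode read ratio; higher means stronger binding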
T4 chain: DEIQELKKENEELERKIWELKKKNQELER

[5] = target: T5, 4H717-bH; experiment: two-hybrid library CCNG1;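 note: natural log of median RNA to DNA barcode read ratio; higher means stronger binding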
T5 chain: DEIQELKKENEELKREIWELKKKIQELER

[6] = target: T6, 4H72-bH; experiment: two-hybrid library CCNG1;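 note: natural log of median RNA to DNA barcode read ratio; higher means stronger binding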
T6 chain: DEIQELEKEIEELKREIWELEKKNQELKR

[7] = target: T7, 4H754-bH; experiment: two-hybrid library CCNG1
T7 chain: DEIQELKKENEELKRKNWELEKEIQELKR

[8] = target: T8, 4H797-bH; experiment: two-hybrid library CCNG1
T8 chain: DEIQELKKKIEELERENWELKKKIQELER

[9] = target: T9, 4H883-bH; experiment: two-hybrid library CCNG1
T9 chain: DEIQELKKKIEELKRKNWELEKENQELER

[10] = target: T10, 4H908-bH; experiment: two-hybrid library CCNG1
T10 chain: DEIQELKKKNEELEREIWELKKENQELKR

[11] = target: T11, 4H918-bH; experiment: two-hybrid library CCNG1
T11 chain: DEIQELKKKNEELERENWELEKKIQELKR

[12] = target: T12, 4H953-bH; experiment: two-hybrid library CCNG1
T12 chain: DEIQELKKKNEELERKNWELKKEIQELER

[13] = target: T13, 4H967-bH; experiment: two-hybrid library CCNG1
T13 chain: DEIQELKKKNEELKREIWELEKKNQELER

[14] = target: T14, P9; experiment: two-hybrid library CC1
T14 chain: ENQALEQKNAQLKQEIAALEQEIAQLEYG

[15] = target: T15, 4H3940-AA; experiment: two-hybrid library CCmax
T15 chain: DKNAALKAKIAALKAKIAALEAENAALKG

[16] = target: T16, 4H510-AA; experiment: two-hybrid library CCmax; details: mean of both orientations
T16 chain: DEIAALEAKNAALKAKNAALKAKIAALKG

[17] = target: T17, 4H775-AA; experiment: two-hybrid library CCmax; details: mean of both orientations
T17 chain: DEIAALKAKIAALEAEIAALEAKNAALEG

[18] = target: T18, 4H816-AA; experiment: two-hybrid library CCmax; details: mean of both orientations
T18 chain: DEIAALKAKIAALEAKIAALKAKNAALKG

[19] = target: T19, 4H87-AA; experiment: two-hybrid library CCmax; details: mean of both orientations
T19 chain: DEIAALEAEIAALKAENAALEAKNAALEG

[20] = target: T20, 4H454-bN; experiment: two-hybrid library CCNG1
T20 chain: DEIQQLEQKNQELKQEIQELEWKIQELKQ

[21] = target: T21, 4H568-bN; experiment: two-hybrid library CCNG1
T21 chain: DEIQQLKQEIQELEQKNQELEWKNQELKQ

[22] = target: T22, 4H607-bN; experiment: two-hybrid library CCNG1
T22 chain: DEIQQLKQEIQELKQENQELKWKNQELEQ

[23] = target: T23, 4H687-bN; experiment: two-hybrid library CCNG1
T23 chain: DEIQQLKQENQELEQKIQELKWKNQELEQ

[24] = target: T24, 4H717-bN; experiment: two-hybrid library CCNG1
T24 chain: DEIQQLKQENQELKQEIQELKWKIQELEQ

[25] = target: T25, 4H72-bN; experiment: two-hybrid library CCNG1
T25 chain: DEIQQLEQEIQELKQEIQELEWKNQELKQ

[26] = target: T26, 4H754-bN; experiment: two-hybrid library CCNG1
T26 chain: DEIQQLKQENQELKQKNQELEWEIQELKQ

[27] = target: T27, 4H797-bN; experiment: two-hybrid library CCNG1
T27 chain: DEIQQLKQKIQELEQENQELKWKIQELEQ

[28] = target: T28, 4H883-bN; experiment: two-hybrid library CCNG1
T28 chain: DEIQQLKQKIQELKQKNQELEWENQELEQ

[29] = target: T29, 4H908-bN; experiment: two-hybrid library CCNG1
T29 chain: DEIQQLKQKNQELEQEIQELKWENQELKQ

[30] = target: T30, 4H918-bN; experiment: two-hybrid library CCNG1
T30 chain: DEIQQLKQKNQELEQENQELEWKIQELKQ

[31] = target: T31, 4H953-bN; experiment: two-hybrid library CCNG1
T31 chain: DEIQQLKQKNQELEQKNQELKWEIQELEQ

[32] = target: T32, 4H967-bN; experiment: two-hybrid library CCNG1
T32 chain: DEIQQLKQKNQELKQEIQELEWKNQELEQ

[33] = target: T33, 4H3094-AA; experiment: two-hybrid library CCmax
T33 chain: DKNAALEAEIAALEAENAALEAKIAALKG

[34] = target: T34, 4H324-AA; experiment: two-hybrid library CCmax; details: mean of both orientations
T34 chain: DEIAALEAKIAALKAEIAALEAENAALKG

[35] = target: T35, 4H341-AA; experiment: two-hybrid library CCmax; details: mean of both orientations
T35 chain: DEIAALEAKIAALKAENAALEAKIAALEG

[36] = target: T36, 4H3449-AA; experiment: two-hybrid library CCmax; details: mean of both orientations
T36 chain: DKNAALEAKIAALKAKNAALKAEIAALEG

[37] = target: T37, 4H3619-AA; experiment: two-hybrid library CCmax; details: mean of both orientations
T37 chain: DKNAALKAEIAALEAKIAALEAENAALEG

[38] = target: T38, 4H3629-AA; experiment: two-hybrid library CCmax; details: mean of both orientations
T38 chain: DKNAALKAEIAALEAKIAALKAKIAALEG

[39] = target: T39, 4H3777-AA; experiment: two-hybrid library CCmax; details: mean of both orientations
T39 chain: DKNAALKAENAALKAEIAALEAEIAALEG

[40] = target: T40, 4H380-AA; experiment: two-hybrid library CCmax; details: mean of both orientations
T40 chain: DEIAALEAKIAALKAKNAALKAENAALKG

[41] = target: T41, 4H3915-AA; experiment: two-hybrid library CCmax
T41 chain: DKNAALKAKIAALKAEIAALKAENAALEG

[42] = target: T42, 4H3974-AA; experiment: two-hybrid library CCmax; details: mean of both orientations
T42 chain: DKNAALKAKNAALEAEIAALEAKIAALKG

[43] = target: T43, 4H432-AA; experiment: two-hybrid library CCmax; details: mean of both orientations
T43 chain: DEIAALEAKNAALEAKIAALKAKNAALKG

[44] = target: T44, 4H446-AA; experiment: two-hybrid library CCmax; details: mean of both orientations
T44 chain: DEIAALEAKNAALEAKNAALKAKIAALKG

[45] = target: T45, 4H63-AA; experiment: two-hybrid library CCmax; details: mean of both orientations
T45 chain: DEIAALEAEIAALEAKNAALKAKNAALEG

[46] = target: T46, 4H2961-AA; experiment: two-hybrid library CCmax; details: mean of both orientations
T46 chain: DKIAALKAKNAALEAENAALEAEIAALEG

[47] = target: T47, 4H3049-AA; experiment: two-hybrid library CCmax; details: mean of both orientations
T47 chain: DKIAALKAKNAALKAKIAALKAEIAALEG

[48] = target: T48, 4H454-bA; experiment: two-hybrid library CCNG1
T48 chain: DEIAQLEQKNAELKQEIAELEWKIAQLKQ

[49] = target: T49, 4H568-bA; experiment: two-hybrid library CCNG1
T49 chain: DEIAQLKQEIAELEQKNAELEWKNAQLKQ

[50] = target: T50, 4H607-bA; experiment: two-hybrid library CCNG1
T50 chain: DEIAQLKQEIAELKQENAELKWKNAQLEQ

[51] = target: T51, 4H687-bA; experiment: two-hybrid library CCNG1
T51 chain: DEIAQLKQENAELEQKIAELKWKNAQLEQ

[52] = target: T52, 4H717-bA; experiment: two-hybrid library CCNG1
T52 chain: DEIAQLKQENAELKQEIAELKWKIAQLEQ

[53] = target: T53, 4H72-bA; experiment: two-hybrid library CCNG1
T53 chain: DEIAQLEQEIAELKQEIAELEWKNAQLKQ

[54] = target: T54, 4H754-bA; experiment: two-hybrid library CCNG1
T54 chain: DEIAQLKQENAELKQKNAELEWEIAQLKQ

[55] = target: T55, 4H797-bA; experiment: two-hybrid library CCNG1
T55 chain: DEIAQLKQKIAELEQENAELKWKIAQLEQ

[56] = target: T56, 4H883-bA; experiment: two-hybrid library CCNG1
T56 chain: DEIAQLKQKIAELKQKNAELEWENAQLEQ

[57] = target: T57, 4H908-bA; experiment: two-hybrid library CCNG1
T57 chain: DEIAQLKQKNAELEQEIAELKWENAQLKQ

[58] = target: T58, 4H918-bA; experiment: two-hybrid library CCNG1
T58 chain: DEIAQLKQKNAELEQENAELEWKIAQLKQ

[59] = target: T59, 4H953-bA; experiment: two-hybrid library CCNG1
T59 chain: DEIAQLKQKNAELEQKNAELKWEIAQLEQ

[60] = target: T60, 4H967-bA; experiment: two-hybrid library CCNG1
T60 chain: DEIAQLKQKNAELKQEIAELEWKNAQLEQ

Binder: DEIQELEKKNEELKREIWELEKKIQELKR [4H454-bH]
- interaction score [1]: 1.6
- interaction score [2]: 0.197
- interaction score [3]: -1.61
- interaction score [4]: 1.81
- interaction score [5]: 0.664
- interaction score [6]: 0.203
- interaction score [7]: 0.236
- interaction score [8]: -0.829
- interaction score [9]: -1.26
- interaction score [10]: -0.536
- interaction score [11]: -1.05
- interaction score [12]: 1.26
- interaction score [13]: 0.69

Binder: ENQALEQKNAQLKQEIAALEQEIAQLEYG [P9]
- interaction score [14]: -2.32

Binder: DKNAALKAKIAALKAKIAALEAENAALKG [4H3940-AA]
- interaction score [15]: 0.422
- interaction score [16]: -1.47
- interaction score [17]: -0.249
- interaction score [18]: -0.0778
- interaction score [19]: -0.615

Binder: DEIQQLEQKNQELKQEIQELEWKIQELKQ [4H454-bN]
- interaction score [20]: -0.79
- interaction score [21]: 0.196
- interaction score [22]: 0.145
- interaction score [23]: 1.02
- interaction score [24]: 0.0875
- interaction score [25]: 0.494
- interaction score [26]: -0.587
- interaction score [27]: -0.833
- interaction score [28]: -0.143
- interaction score [29]: 0.201
- interaction score [30]: -0.834
- interaction score [31]: -1.26
- interaction score [32]: -0.354

Binder: DKNAALEAEIAALEAENAALEAKIAALKG [4H3094-AA]
- interaction score [33]: -0.802
- interaction score [34]: -0.623
- interaction score [35]: 1.64
- interaction score [36]: 2.52
- interaction score [37]: -1.6
- interaction score [38]: -0.24
- interaction score [39]: -0.696
- interaction score [40]: 1.51
- interaction score [41]: -0.623
- interaction score [42]: -0.861
- interaction score [43]: 0.441
- interaction score [44]: -0.811
- interaction score [45]: -0.753

Binder: DKIAALKAKNAALEAEIAALEAENAALEG [4H2947-AA]
- interaction score [46]: -2.03
- interaction score [47]: -0.853
- interaction score ([33]; mean of both orientations): 1.06
- interaction score [34]: -1.49
- interaction score [35]: -1.12
- interaction score [36]: -0.39
- interaction score [37]: -1.85
- interaction score [38]: -1.56
- interaction score [39]: -1.93
- interaction score [40]: -1.17
- interaction score ([41]; mean of both orientations): -1.59
- interaction score [42]: -1.36
- interaction score [43]: 2.09
- interaction score [44]: -0.0537
- interaction score [45]: -1.61

Binder: DEIAQLEQKNAELKQEIAELEWKIAQLKQ [4H454-bA]
- interaction score [48]: 1.86
- interaction score [49]: -0.589
- interaction score [50]: -0.773
- interaction score [51]: 1.48
- interaction score [52]: 0.262
- interaction score [53]: -0.678
- interaction score [54]: -0.711
- interaction score [55]: -1.06
- interaction score [56]: -0.0808
- interaction score [57]: -0.182
- interaction score [58]: -0.912
- interaction score [59]: 0.62
- interaction score [60]: -0.131
